Assay results as given in article PMC12630357 (The Journal of Biological Chemistry, 2025).

Target: T1, 6xHis-CotV (Bacillus subtilis 168, UniProt Q08309 1-128)
T1 construct: CotV, spore coat (crust) protein of Bacillus subtilis strain 168; native ORF printed as 129 residues; residues 1-125 resolved in the model; Forms a helical filament; the number of copies is not fixed; also called 6xHis-tagged CotV; CotV1; source: E. coli BL21(DE3), coexpressed with CotW from pET-DUET, Ni-NTA purified as the CotVW complex; not shown: 6xHis (within an N-terminal extension of 14 …)
T1 sequence (looked up): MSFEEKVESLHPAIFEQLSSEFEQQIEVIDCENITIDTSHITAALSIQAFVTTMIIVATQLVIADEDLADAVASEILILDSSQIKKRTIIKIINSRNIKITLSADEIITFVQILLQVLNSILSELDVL
Assay: cryo-EM structure; helical reconstruction of 6xHis-tagged CotVW filaments, 3.32 Å; twist 153.09°, rise 9.52 Å, one CotV-CotW heterodimer per asymmetric unit
Conditions: both partners purified

stoichiometry N: 1
B1: CotW (natural protein, Bacillus subtilis 168, UniProt Q08310 1-105, looked up)
chain: MSDNDKFKEELAKLPEVDPMTKMLVQNIFSKHGVTKDKMKKVSDEEKEMLLNLVKDLQAKSQALIENQKKKKEEAAAQEQKNTKPLSRREQLIEQIRQRRKNDNN
notes: CotW, spore coat (crust) protein of Bacillus subtilis strain 168; native ORF 105 residues; residues 18-98 resolved in the model; also called CotW1; CotW monomer; source: E. coli BL21(DE3), coexpressed with 6xHis-CotV from pET-DUET, co-purified on Ni-NTA as the CotVW complex; not shown: single added tyrosine, C-terminal, kept
